# Test results published in PMC5492851.
# Assays:
# [1] = biological target: cellular microtubules (polymerised tubulin) (human (endogenous in HeLa)) (UniProt P68363)
# [2] = biological target: cellular microtubules (polymerised tubulin) (human (endogenous in HeLa)) (UniProt P68363); remark: listed apart in the source
# [3] = biological target: cellular microtubules (polymerised tubulin) (human (endogenous in HeLa)) (UniProt P68363); test: FRAP; as a1, cells treated with 1 μM Nocodazole (30 min before and during FRAP) to disassemble microtubules
# [4] = biological target: cellular microtubules (polymerised tubulin) (human (endogenous in HeLa)) (UniProt P68363); test: FRAP; live untreated reporter cells, 37°C, 5% CO2; EYFP bleached in a circular ROI of 2 μm radius in the cytoplasm; recovery fitted with two exponentials (A1 diffusing phase, A2 MT-bound phase)
# UniProt P68363, sequence (P68363 whole entry, chain 1 of 2): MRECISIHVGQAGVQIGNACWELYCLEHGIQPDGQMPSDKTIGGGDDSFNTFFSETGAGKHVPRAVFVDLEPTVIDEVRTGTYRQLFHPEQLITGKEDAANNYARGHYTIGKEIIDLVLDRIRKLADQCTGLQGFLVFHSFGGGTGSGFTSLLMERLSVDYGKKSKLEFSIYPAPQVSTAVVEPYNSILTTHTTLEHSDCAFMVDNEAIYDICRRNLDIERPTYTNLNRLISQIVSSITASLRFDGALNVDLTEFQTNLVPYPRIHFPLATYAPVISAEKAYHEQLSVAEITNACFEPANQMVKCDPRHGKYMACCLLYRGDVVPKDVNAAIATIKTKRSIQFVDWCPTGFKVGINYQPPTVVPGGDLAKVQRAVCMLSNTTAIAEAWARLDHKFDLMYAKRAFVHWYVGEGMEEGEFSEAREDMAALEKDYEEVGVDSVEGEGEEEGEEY
# UniProt P68363, sequence (P07437 whole entry, chain 2 of 2, further chain): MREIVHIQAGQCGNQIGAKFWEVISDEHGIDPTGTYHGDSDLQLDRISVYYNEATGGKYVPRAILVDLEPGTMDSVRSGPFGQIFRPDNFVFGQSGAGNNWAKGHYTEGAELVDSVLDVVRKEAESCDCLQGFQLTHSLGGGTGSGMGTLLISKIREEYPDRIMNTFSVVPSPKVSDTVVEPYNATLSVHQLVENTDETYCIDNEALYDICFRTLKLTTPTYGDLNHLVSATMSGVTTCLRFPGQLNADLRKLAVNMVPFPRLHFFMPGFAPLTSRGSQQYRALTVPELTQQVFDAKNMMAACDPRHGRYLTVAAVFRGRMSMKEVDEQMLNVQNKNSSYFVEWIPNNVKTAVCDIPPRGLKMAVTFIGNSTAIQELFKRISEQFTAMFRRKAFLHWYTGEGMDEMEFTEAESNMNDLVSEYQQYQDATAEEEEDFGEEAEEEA
substance,measurement,setting,value
"Conformational Sensitive Tau sensor (ECFP-Tau-EYFP, full length human Tau-D, 0N4R) (from UniProt P10636-6 1-383) (natural protein)",NFRET of CST during treatment with 1 μM nocodazole (time course; at 10 min),[1],50%
same,"NFRET of CST (intramolecular, ECFP to EYFP) along MTs in untreated cells",[2],14.5
same,"fraction of the mobile molecules in the MT-bound phase (A2), with Nocodazole",[3],47%
same,fraction of the mobile molecules in the MT-bound phase (A2),[4],72%
same,time constant of fluorescence recovery of the MT-bound phase (τ2),[4],35.2 s
